For 68 sequences, protein stability index results are on record in the supplement of paper PMC10724198.

The subject of this data set is Saccharomyces cerevisiae. Nature of the data set: protein stability index of tFT-peptide fusion (C-terminal peptide) (PSI (0-1 scale)); higher = more stable (slower turnover). The conditions noted are these: temperature: 30 C. Here is the method: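 MPS profiling in S. cerevisiae of the yeast C-terminome library: the last 12 aa of each annotated ORF are fused to the C-terminus of a sfGFP-mCherry timer, after a GGGS linker. Cells are FACS-sorted into 8 mCherry/sfGFP bins and deep-sequenced. PSI runs from 0 (unstable) to 1 (stable); wild type and das1Δ backgrounds, two technical replicates each.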

Setting [1] is: genetic background: das1 deletion.

± gives the standard deviation of the averaged measurements.

As to DKYLCMLKTCVF [NUT1 C-terminal 12 aa], the protein stability index is 0.515 ± 0.019 under setting [1] and 0.517 ± 0.021 (genetic background: wild type).
On to DLVRTDQLCPNY [CQD1 C-terminal 12 aa], for which the protein stability index came out at 0.681 ± 0.021 under setting [1] and 0.682 ± 0.035 (genetic background: wild type).
For DNDNDDDIDSDN [RUP1 C-terminal 12 aa], in that order: 0.704 ± 0.051 and 0.6853 ± 0.0067.
For DNFRERYFNNFN [TRM11 C-terminal 12 aa], in that order: 0.71368 ± 0.00039 and 0.6816 ± 0.0054.
As to DNGELDLSGFNI [MED2 C-terminal 12 aa], the protein stability index by setting is: under setting [1], 0.696 ± 0.013; (genetic background: wild type) 0.734 ± 0.073.
The corresponding values for DNQSLPNSEKIK [CST6 C-terminal 12 aa] are 0.711 ± 0.017 and 0.7044 ± 0.0021.
For DQPFYKKMFGKK [HXT3 C-terminal 12 aa], in that order: 0.6926 ± 0.0016 and 0.698 ± 0.042.
Turning to DRIESSSGRISW [SPC110 C-terminal 12 aa], the protein stability index reads like this: under setting [1], 0.702 ± 0.022; (genetic background: wild type) 0.681 ± 0.028.
For DSEIEMLKGRLQ [EPO1 C-terminal 12 aa], in that order: 0.6666 ± 0.002 and 0.694 ± 0.026.
For DSELGCCCCFFN [EDS1 C-terminal 12 aa], in that order: 0.701 ± 0.03 and 0.696 ± 0.018.
For DSIADEFSSLYF [SPR6 C-terminal 12 aa], in that order: 0.7689 ± 0.0042 and 0.721 ± 0.046.
For the sequence DSPDFKKHLEKK [RSM10 C-terminal 12 aa], the protein stability index was determined as 0.684 ± 0.025 under setting [1] and 0.721 ± 0.046 (genetic background: wild type).
The corresponding values for DSTVLDFVESIS [HER2 C-terminal 12 aa] are 0.7089 ± 0.005 and 0.694 ± 0.06.
For DTGNTIKCEFIL [ERG29 C-terminal 12 aa], in that order: 0.7022 ± 0.0068 and 0.699 ± 0.017.
For DTTFPQDQHDID [PUT7 C-terminal 12 aa], in that order: 0.696 ± 0.012 and 0.629 ± 0.059.
As to DVETRVQNLEQT [DPB4 C-terminal 12 aa], the protein stability index under setting [1] turned out to be 0.713 ± 0.032 and the protein stability index (genetic background: wild type) was found to be 0.699 ± 0.013.
For DVIDTIMSKQEP [UGA4 C-terminal 12 aa], in that order: 0.698 ± 0.02 and 0.6826 ± 0.0027.
The corresponding values for DWAPGKQLEMNH [JAC1 C-terminal 12 aa] are 0.699 ± 0.018 and 0.743 ± 0.042.
For the sequence EAADEADEADEE [RPS9A C-terminal 12 aa], the protein stability index reads like this: under setting [1], 0.6914 ± 0.0068; (genetic background: wild type) 0.747 ± 0.017.
For the sequence EAEQTKAPKIQI [TMC1 C-terminal 12 aa], the protein stability index runs as follows: under setting [1], 0.6728 ± 0.0043; (genetic background: wild type) 0.701 ± 0.012.
For EAHREQIGGATY [SMT3 C-terminal 12 aa], in that order: 0.691 ± 0.016 and 0.676 ± 0.011.
For EAVDRIVSHDEL [SEC20 C-terminal 12 aa], the protein stability index is, setting by setting: under setting [1], 0.702 ± 0.014; (genetic background: wild type) 0.6744 ± 0.00081.
The corresponding values for ECRKKNYFKCKH [ATG39 C-terminal 12 aa] are 0.692 ± 0.0091 and 0.187 ± 0.0042.
With EDAFLKDVFQQS [KGD1 C-terminal 12 aa], the protein stability index reads like this: under setting [1], 0.7394 ± 0.0043; (genetic background: wild type) 0.782 ± 0.093.
The corresponding values for EDESLNSSRSTT [RCF3 C-terminal 12 aa] are 0.6802 ± 0.0033 and 0.691 ± 0.013.
Regarding EDGVGDPREEDE [RAD51 C-terminal 12 aa], the protein stability index by setting is: under setting [1], 0.693 ± 0.023; (genetic background: wild type) 0.6258 ± 0.0013.
The corresponding values for EDITVQVPDTPT [EST1 C-terminal 12 aa] are 0.708 ± 0.017 and 0.674 ± 0.017.
For EDPDFLQHALQS [GRX3 C-terminal 12 aa], in that order: 0.707 ± 0.013 and 0.704 ± 0.013.
For EDSSDSSDSDSD [BDF2 C-terminal 12 aa], in that order: 0.669 ± 0.015 and 0.675 ± 0.068.
For the sequence EEDIFYRNQVVF [YKR075C C-terminal 12 aa], the protein stability index is, setting by setting: under setting [1], 0.738 ± 0.0081; (genetic background: wild type) 0.777 ± 0.059.
Regarding EEDPEYFQHALQ [GRX4 C-terminal 12 aa], the protein stability index was 0.71049 ± 4e-05 under setting [1] and 0.715 ± 0.049 (genetic background: wild type).
For EEEKRHGIYLKC [GUP1 C-terminal 12 aa], in that order: 0.694 ± 0.029 and 0.647 ± 0.019.
For EEFNKQLKDIEA [YOR289W C-terminal 12 aa], in that order: 0.69 ± 0.026 and 0.661 ± 0.017.
The corresponding values for EEGQTQPEEESA [BUR6 C-terminal 12 aa] are 0.691 ± 0.0078 and 0.692 ± 0.033.
With EERDRRRAQQGL [RPS4A C-terminal 12 aa], the protein stability index is, setting by setting: under setting [1], 0.6948 ± 0.0053; (genetic background: wild type) 0.692 ± 0.05.
For EFDDYESRMHGI [EAR1 C-terminal 12 aa], in that order: 0.73 ± 0.029 and 0.694 ± 0.0086.
The corresponding values for EGEDEELDIDDI [TIF11 C-terminal 12 aa] are 0.671 ± 0.0097 and 0.6717 ± 0.0065.
The corresponding values for EGIETTHNKRIR [AMA1 C-terminal 12 aa] are 0.675 ± 0.018 and 0.666 ± 0.036.
Consider EGKWEPAGEVHQ [SEC13 C-terminal 12 aa], for which the protein stability index was 0.706 ± 0.012 under setting [1] and 0.7167 ± 0.0048 (genetic background: wild type).
The corresponding values for EGVVLGQRRDIV [SCP1 C-terminal 12 aa] are 0.696 ± 0.028 and 0.672 ± 0.0097.
The corresponding values for EHLWNCFFHGSD [IRC20 C-terminal 12 aa] are 0.73 ± 0.012 and 0.731 ± 0.061.
For EHVGKQCGYKYH [STP3 C-terminal 12 aa], in that order: 0.705 ± 0.023 and 0.7096 ± 0.0013.
As for EIFNDFSKRCCF [CDC43 C-terminal 12 aa], the protein stability index is, setting by setting: under setting [1], 0.7326 ± 0.0031; (genetic background: wild type) 0.73168 ± 0.00037.
For EIMLGKNLLITS [YNL109W C-terminal 12 aa], in that order: 0.619 ± 0.0087 and 0.503 ± 0.028.
The corresponding values for EIVRNFSLFNMV [ARP3 C-terminal 12 aa] are 0.697 ± 0.031 and 0.6866 ± 0.0035.
The corresponding values for EKANDIGFNKFR [RPS29A C-terminal 12 aa] are 0.678 ± 0.014 and 0.7106 ± 0.006.
Sequence EKDNSQKIEAKK [SDH4 C-terminal 12 aa] displayed a protein stability index under setting [1] of 0.69 ± 0.012 and a protein stability index (genetic background: wild type) of 0.697 ± 0.11.
The corresponding values for EKEALWKFAKRL [ATP10 C-terminal 12 aa] are 0.699 ± 0.032 and 0.3037 ± 0.00067.
The corresponding values for EKKYLNQSQNQA [BSD2 C-terminal 12 aa] are 0.684 ± 0.035 and 0.692 ± 0.059.
For EKLISLSQSMEN [ATP11 C-terminal 12 aa], in that order: 0.718 ± 0.0096 and 0.785 ± 0.11.
Turning to EKVTNTLSSLKF [LTV1 C-terminal 12 aa], the protein stability index is 0.694 ± 0.0074 under setting [1] and 0.669 ± 0.017 (genetic background: wild type).
The corresponding values for ELAKKWKQEQAL [CLF1 C-terminal 12 aa] are 0.676 ± 0.011 and 0.667 ± 0.011.
For ELFTILHDLTAA [TPS3 C-terminal 12 aa], in that order: 0.718 ± 0.086 and 0.6612 ± 0.005.
The corresponding values for ELPSYKKTSKQN [PSG1 C-terminal 12 aa] are 0.722 ± 0.03 and 0.701 ± 0.077.
For the sequence ELSMIMEHFSQQ [RPS12 C-terminal 12 aa], the protein stability index is, setting by setting: under setting [1], 0.72 ± 0.02; (genetic background: wild type) 0.7056 ± 0.0036.
With ELTLFLSYKSYS [YGR045C C-terminal 12 aa], the protein stability index was found to be 0.683 ± 0.02 under setting [1] and 0.64 ± 0.017 (genetic background: wild type).
For ELTRLVDSKRKR [HFA1 C-terminal 12 aa], in that order: 0.717 ± 0.045 and 0.667 ± 0.011.
For ELWTLQAPELNL [YKL036C C-terminal 12 aa], in that order: 0.72 ± 0.021 and 0.702 ± 0.04.
For “ENAGKIFFNETE [YHR213W-A C-terminal 12 aa]”, the protein stability index by setting is: under setting [1], 0.733 ± 0.029; (genetic background: wild type) 0.684 ± 0.033.
In the case of ENKPDSTFGIIL [YOR170W C-terminal 12 aa], the protein stability index under setting [1] came to 0.718 ± 0.019 and the protein stability index (genetic background: wild type) was 0.749 ± 0.11.
Consider ENLITILDSNYI [ISR1 C-terminal 12 aa], for which the protein stability index by setting is: under setting [1], 0.74 ± 0.0095; (genetic background: wild type) 0.696 ± 0.01.
The corresponding values for ENLTQKKKQSAN [PCT1 C-terminal 12 aa] are 0.703 ± 0.0058 and 0.65 ± 0.011.
With ENRPGPYEFRET [FMP41 C-terminal 12 aa], the protein stability index reads like this: under setting [1], 0.6916 ± 0.0065; (genetic background: wild type) 0.779 ± 0.053.
The corresponding values for EPKEIVDGKVLK [CAM1 C-terminal 12 aa] are 0.692 ± 0.021 and 0.708 ± 0.034.
Turning to EPTLKLSNIYRQ [YBR174C C-terminal 12 aa], the protein stability index is 0.7092 ± 0.0033 under setting [1] and 0.71982 ± 0.00048 (genetic background: wild type).
As to EQDAILLKKHIS [NAT5 C-terminal 12 aa], the protein stability index reads like this: under setting [1], 0.714 ± 0.033; (genetic background: wild type) 0.3 ± 0.029.
The corresponding values for ERAIKTVRYLLY [YOL079W C-terminal 12 aa] are 0.678 ± 0.008 and 0.631 ± 0.021.
As for ERKLSTKKVSVE [YHR078W C-terminal 12 aa], the protein stability index reads like this: under setting [1], 0.707 ± 0.052; (genetic background: wild type) 0.7 ± 0.032.
